Experimental data taken from patent US20250388638A1, “COMPOSITIONS AND METHODS FOR ORAL DELIVERY” (IMAGINE PHARMA LLC, priority 2021, published 2025).
Like-named read-outs stand apart in the source and are kept apart here.

B1: MADDAGAAGGPGGPGGPGMGNRGGFRGGFGSGIRGRGRGRGRGRGRGRGAHAEGTFTSDVSSYLEGQAAKEFIAWLVRGRGMADDAGAAGGPGGPGGPGMGNRGGFRGGFGSGIRGRGRGRGRGRGRGRGA (protein)
chain: MADDAGAAGGPGGPGGPGMGNRGGFRGGFGSGIRGRGRGRGRGRGRGRGAHAEGTFTSDVSSYLEGQAAKEFIAWLVRGRGMADDAGAAGGPGGPGGPGMGNRGGFRGGFGSGIRGRGRGRGRGRGRGRGA
B2: MADDAGAAGGPGGPGGPGMGNRGGFRGGFGSGIRGRGRGRGRGRGRGRGAHAEGTFTSDVSSYLEGQAAKEFIAWLVRGRG (protein)
chain: MADDAGAAGGPGGPGGPGMGNRGGFRGGFGSGIRGRGRGRGRGRGRGRGAHAEGTFTSDVSSYLEGQAAKEFIAWLVRGRG

Assays:
Caco-2 cells [1] = system: Caco-2 cells
Text: (§1) (See Example 1) Caco-2 cells may be cultured in the presence of a polypeptide construct comprising a polypeptide and a heterologous polypeptide and analyzed using a fluorescent assay to determine the percentage of uptake of the polypeptide construct into the cells.
(§2) Polypeptide conjugates may be studied in vitro using Caco-2 cells, to assess uptake and bioactivity of the therapeutic polypeptide.
(§3) To mimic the steric conditions in the intestine in vivo, Caco-2 cells may be cultured on permeable filter inserts (such as available from Becton Dickenson, Corning, Costar).
(§4) Various polypeptide constructs were labeled with Alexa Fluor™ Labeling Kits (ThermoFisher), to generate fluorescently labeled polypeptide constructs. Caco-2 cells were seeded in 12-well plates and incubated for 4 hours with the labeled polypeptides at concentrations ranging from 2-10 ug/mL. Following incubation, the plates were read on a Tecan Infinite M Nano+ and washed gently several times with PBS, then given fresh media, and the plates were re-read. The % of fluorescence remaining in the dish represents the relative amount of uptake of polypeptide construct compared to the amount originally applied to the cells.

[2] = system: glucose-stimulated islets; assay: Inhibition of insulin secretion from glucose-stimulated islets (insulin ELISA); type: cell-based, human
Procedure: To determine if the polypeptide constructs comprising a polypeptide having an amino acid sequence identity according to SEQ ID NO:49 or 50 are biologically active following administration (PO), the ability of PCT-OCT to inhibit insulin secretion from glucose-stimulated islets was tested. Triplicates of 25 human islets (from a donor pancreas procured from an IIDP-approved islet center) were plated in a 96-well plate containing 100 μl of CMRL islet media (such as available from MediaTech). The islets were pre-incubated with either 100 μl (50%) serum (serum was collected from pancreas donor), 100 μl (50%) serum+PT-OCT, or 100 μl (50%) serum+PT-OCT that was exposed to thrombin for 45 minutes to cleave the polypeptide sequence from the therapeutic octapeptide of the polypeptide construct. Following a pre-incubation, the media and serum was removed and replaced with KREB's buffer solution containing 16.7 mM glucose, and incubated for an additional 30 minutes, at which point the KREB's buffer was collected. Insulin concentrations of the supernatant was measured using commercially available ELISA kits (such as available from Abcam). […] (See FIG. 19)

[3] = Blood levels of polypeptide fragment after PO administration of PT-OCT (FIG. 19); type: in vivo, Wistar rats; conditions: PO 600 μg/animal; 0, 3 and 5 hours
Procedure: Blood samples were taken from the animals at 0, 3 and 5 hours post administration.

Caco-2 cells [4] = assay: Caco-2 uptake assay with fluorescently labeled polypeptide constructs; conditions: for uptake (% of fluorescence remaining): Caco-2 uptake assay of Example 1
Text: as §1, §2, §3, §4

blood glucose levels = assay: Blood glucose levels after PO administration of GLP-1 agonist constructs; type: in vivo, Sprague Dawley rats; conditions: for blood glucose level: 600 ug PO
Text: GLP-1 agonists, such as exenatide and liraglutide are desirable candidates for formulation as an oral dose therapeutic. To test if a polypeptide according to SEQ ID 1-40, when linked to a GLP-1 agonist as a polypeptide construct, facilitates the transport of GLP-1 agonists from the stomach to the blood, following oral administration. The amino acid sequences for exenatide and liraglutide were used to clone the sequences behind (downstream) of a polypeptide comprising an amino acid sequence according to SEQ ID NO 1, in order to generate, using an expression vector system, peptide constructs comprising an amino acid sequence according to SEQ ID NOs: 42,44 (referred to in the figures as “PT-GA1” and “PT-GA2”, respectively). Also, generated was a polypeptide construct according to SEQ ID NO:46 (“PT-GA2B”), comprised of the liraglutide sequence flanked by a polypeptide according to SEQ ID NO 1 on both the carboxy and amino terminal end of the liraglutide sequence. […] (See FIG. 11) To test efficacy and bioavailability in vivo, Sprague Dawley rats were administered (PO) 600 ug of the compositions comprising polypeptide constructs selected from PT-GA1, PT-GA2 or PT-GA2B, blood was drawn at 0, 4, and 6 hrs. post-treatment, and blood glucose levels were measured. Following treatment, the blood glucose levels of the PT-GA1 treated animals went from 107 mg/dl at 0 hrs to 118 mg/dL at 4 hrs and dropped to 87.5 mg/dl at 6 hrs. post treatment, while the PT-GA2 and PT-GA2B were 98 mg/dl, 126, 111 mg/dL; and 102 mg/dL, 105 mg/dL, 104 mg/dl respectively.

Molecule	uptake (% of fluorescence remaining) (Caco-2 cells [4]) [%]	blood glucose level (blood glucose levels; 0 hrs) [mg/dL]	blood glucose level (blood glucose levels; 4 hrs post-treatment) [mg/dL]	blood glucose level (blood glucose levels; 6 hrs post-treatment) [mg/dL]	also measured
H-Met-Ala-Asp-Asp-Ala-Gly-Ala-Ala-Gly-Gly-Pro-Gly-Gly-Pro-Gly-Gly-Pro-Gly-Met-Gly-Asn-Arg-Gly-Gly-Phe-Arg-Gly-Gly-Phe-Gly-Ser-Gly-Ile-Arg-Gly-Arg-Gly-Arg-Gly-Arg-Gly-Arg-Gly-Arg-Gly-Arg-Gly-Arg-Gly-Nle (triazol-propionyl-D-Phe-Cys-Phe-D-Tru-Lys-Thr-Cys-Thr-ol)-OH [SEQ ID 50]					uptake by Caco-2 cells / targeted delivery (in words) (Caco-2 cells [1]): taken up by Caco-2 cells; relative insulin secretion by glucose-stimulated islet cells, compared to control (in words) [2]: reduction; decrease of insulin secretion of glucose-stimulated islets ([2]; human islets, 50% serum pre-incubation, 16.7 mM glucose): 46%; levels of polypeptide fragment according to SEQ ID 53 in blood (in words) [3]: increasing levels; polypeptide constructs administered to Caco-2 cells taken up (Caco-2 cells [4]; in one example, PT-OCT fusion and PT-OCT click side-by-side): approximately 38%
MADDAGAAGGPGGPGGPGMGNRGGFRGGFGSGIRGRGRGRGRGRGRGRGAFCFWKTCT [SEQ ID 49]					polypeptide constructs administered to Caco-2 cells taken up (Caco-2 cells [1]): approximately 38%
B1	29.4	102	105	104	
B2	31.4	98	126	111	blood glucose levels following oral administration (in words) (blood glucose levels; 600 μg in PBS): decrease in blood glucose levels
